± gives the standard error. Variants at the floor of the assay were thinned out.
B1: glmS ribozyme (parent)
chain: AUAAAAGCGCCAGAACUACAGAAAUGUAGUUGACGAGGAGGAGGUUUAUCGAAUUUUCGGCGGAUGCCUCCAAA

Variants of: B1
Test: self-cleavage kobs at 2500 uM GlcN6P; higher = faster cleavage; RNA array
Conditions: with glucosamine-6-phosphate
Summary of the method: (§1)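 Glucosamine-6-phosphate in HEPES/KCl/Mg(OAc)2 buffer, at 40 μM to 10 mM, was flowed over barcoded ribozyme variants transcribed in situ by E. coli RNA polymerase on sequenced MiSeq chips. Tracking was through a hybridised Cy3 probe at 37 °C. kobs, kcat and KM came from exponential decay fits and weighted Michaelis–Menten fits of normalised per-tile medians.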

Row | Variant | self-cleavage kobs at 2500 uM GlcN6P [s⁻¹]
1 | AUAAAAGCGCCAGAACUACAGAAAUGUAGUUGCCGAGGAUGAGGUUUAUCGAAUUUUCGGCAGAUGCCUGCAAA [A33C G40U G62A C70G] | < 1e-05
2 | AUAAAAGCGCCAGAACUACAGAAAUGUAGUUCACGAGGUGGAGGUUUAUGGCAUUUACGGCGGUUGCCUCCAAA [G32C A39U C50G A52C U57A A64U] | < 1e-05
3 | AUAAAAGCGCCAGGACUACAGAAAUGUAGUUGACGAGGAGGAGGUUUAUCGAAUGUUCGGCGGAUGCAUCCAAA [A14G U55G C68A] | 0.000208 ± 5.1e-05
4 | AUAAAAGCGCCAGGACUACAGAAAUGUAGUGGACGAGGAGGACGUUUAUCGAAUUUUCGGCGGAUGCCUCCAAA [A14G U31G G43C] | < 1e-05
5 | AUAAAAGCGGCAGAAUUACAGAAAUGUAGUUGGCGAGGACGAGGUUGAUCGAAUUGUCGGCGGAUGCCUCCAAA [C10G C16U A33G G40C U47G U56G] | < 1e-05
6 | AUAAAAGCGACAGAACUACAGAAAUGUAGUUGACGAGGAGGAGGUUUCUCGAAUUUUCGGCGGUUGCCUCCAAA [C10A A48C A64U] | < 1e-05
7 | AUAAAAGCGCCAGAACUACAGAAAUGUAGUUGACGAGGAGAUGGUUUAUCGAAUUUUCGGCAGAUGCCUCCAAA [G41A A42U G62A] | < 1e-05
8 | AUAAAAGCGCCAGAACUACAGAAAUGUAGUUGACGAGGAGGAGGUUUGUGGUAUUUUCGGCGGAUGCCUCCAAA [A48G C50G A52U] | < 1e-05
9 | AUAAAAGCGCCAGGACUACAGAAAUGUACUUGACGAGGGGGAGGUUUAUCGAAUUUUCGGCGGAUGCCUCCAAA [A14G G29C A39G] | 0.000197 ± 9.1e-05
10 | AUAAAAGCUCCAGAACUACAGAAAUGUAGUUGACGAGCAUGACGUUUAUCGAAUUUUCGGCGGAUGCCUCCAAA [G9U G38C G40U G43C] | < 1e-05
11 | AUAAAAGCGCCAGAACUACAGAAAUGUAGUUGACGAGGAGGAGGGUUAUCGAAUUAUCGGCGGAUGCCUCUAAA [U45G U56A C71U] | 0.000974 ± 0.00025
12 | AUAAAAGCGCCAGAGCUACAGAAAUGUAGUUGACGAGGUGGAGGUUUAUCGAAUUUUCGCCGGAUGCCUCCAAA [A15G A39U G60C] | < 1e-05
13 | AUAAAAGCGCCAGAGCUACAGAAAUGUAGUUGACGAGUAGGAGGUUUAUCGAAUUUACGGCUGAUGCCACCAAA [A15G G38U U57A G62U U69A] | 0.000891 ± 0.00032
14 | AUAAAAGCGCCAGAAGUACAGAAAUGUAGUUGACGAGGAGGAUGAUUAUCGAAUUUUCGGCGGAGGCUUUCAAA [C16G G43U U45A U65G C68U C70U] | < 1e-05
15 | AUAAAAGCGCCAGAAAUACAGAAAUGUAGUUUACGAGGAGGAGGUUUAUCGAAUGUUCGGCGGAUGCCUCCAAA [C16A G32U U55G] | 0.000117 ± 3.5e-05
16 | AUAAAAGCGCCAGAACUACAGAAAUGUAGUUGACGAGUAGUAGGUUUAUCGAAUUUUCCGCGGAAGCCUCCAAA [G38U G41U G59C U65A] | < 1e-05

Row | Variant | self-cleavage kobs at 2500 uM GlcN6P [s⁻¹]
17 | AUAAAAGCGCCAGAAUUACAGAAAUGUAUUUGACGAGGAGGAGGUUUAUCGAUUUUUCGGCGGAUGCCUCCAAA [C16U G29U A53U] | 0.00254 ± 0.00062
18 | AUAAAAUCGCCAGAAUUACAGAAAUGUAGUUGACGAGGAGGAGGUAUAUCGAAUUUUCGGCGGAUGCCUCCAAA [G7U C16U U46A] | < 1e-05
19 | AUAAAAGCGCCAGAACUACAGAAAUGUAGUCGACGACGAGGAGGUUUGGCGAACUUUCGGCGGAUGCCUCAAAA [U31C G37C A48G U49G U54C C71A] | < 1e-05
20 | AUAAAAGCGCCACAACUACAGAAAUGUAGUUGGCAAGGAGGAGGUUUGUCGAAUUUUCGGCGGGUGCCUCCAAA [G13C A33G G35A A48G A64G] | < 1e-05
21 | AUAAAAGCGCCAGAACUACAGAAAUGUAGUUGACGAUCAGGAGGUUUAUCGAAUCUUCGGCGGAUGCCUCCAAA [G37U G38C U55C] | < 1e-05
22 | AUAAAAGCGCCUGAACUACAGAAAUGUAGUUGACGAGGAAGAGGUUUAUCGACUUUUCGGCGGAUGCCUCCAAA [A12U G40A A53C] | 0.00179 ± 0.00063
23 | AUAAAAGCGCCAGAACUACAGAAAUGUAGUUGACGAGGAGCAGGUUUAUCGAAUUUUCUGCGGAUGUCUCCAAA [G41C G59U C67U] | < 1e-05
24 | AUAAAAGCGCCAGAACUACAGAAAUGUAGUUGACCAGGAGGAGGUUUAUCGAGUUUUCGGCGGAUGCCUCUAAA [G35C A53G C71U] | < 1e-05
25 | AUAAAAGCGCCUGAACUACAGAAAUGUAGUUGACUAGGAGGAGGUUUAUCGAUUUUUCGGGGGACGCCUCCAAA [A12U G35U A53U C61G U65C] | < 1e-05
26 | AUAAAAGCGCCAGAACUACAGAAAUGUAGUUGACGAGGAGAAGGUUUACCGAAUUUACUGCGGAUGCGUCCAAA [G41A U49C U57A G59U C68G] | < 1e-05
27 | AUAAAAGCGCCAGAACUACAGAAAUGUAGUUGACGAAGACGAGGUUGAUCGAAUUGUCGCCGGAUGCCUCGAAA [G37A G40C U47G U56G G60C C71G] | < 1e-05
28 | AUAAAAGCGCCGGAACUACAGAAAUGUAGUUGACGAGGAGGAGGGUUAUCGAAGUUUCGGCGGAUGCCUCCAAA [A12G U45G U54G] | 0.000192 ± 5.5e-05
29 | AUAAAAGCGACAGAACUACAGAAAUGUAGUUGACGAGGAGCAGGUUUAUGGACUUUUCGGCGGAUGCCUCCAAA [C10A G41C C50G A53C] | < 1e-05
30 | AUAAAAACACCAGAACUACAGAAAUGUAGUUGACGAGAAGGAGGUUUAUCGAAUUUUCGGCGGAGGCCUCCAAA [G7A G9A G38A U65G] | < 1e-05
31 | AUAAAAGCGCCAGAAUUACAGAAAUGUAGUUGAUGAGGAGGAGGUUCAUCGAAUUUUCUGCGGAUGCCUCUAAA [C16U C34U U47C G59U C71U] | < 1e-05

Variants of: B1
Test: self-cleavage kobs at 10000 uM GlcN6P; higher = faster cleavage; RNA array
Conditions: with glucosamine-6-phosphate
Summary of the method: as §1

Row | Variant | self-cleavage kobs at 10000 uM GlcN6P [s⁻¹]
32 | AUAAAAGCGCCAGGACUACAGAAAUGUACUUGACGAGGGGGAGGUUUAUCGAAUUUUCGGCGGAUGCCUCCAAA [A14G G29C A39G] | 0.000412 ± 7.6e-05
33 | AUAAAAGCGCCAGAAAUACAGAAAUGUAGUUUACGAGGAGGAGGUUUAUCGAAUGUUCGGCGGAUGCCUCCAAA [C16A G32U U55G] | 0.000315 ± 4.6e-05
34 | AUAAAAGCGCCAGAAUUACAGAAAUGUAUUUGACGAGGAGGAGGUUUAUCGAUUUUUCGGCGGAUGCCUCCAAA [C16U G29U A53U] | 0.00591 ± 0.00094
35 | AUAAAAGCGCCUGAACUACAGAAAUGUAGUUGACGAGGAAGAGGUUUAUCGACUUUUCGGCGGAUGCCUCCAAA [A12U G40A A53C] | 0.00159 ± 0.00056
36 | AUAAAAGCGCCAGAACUACAGAAAUGUAGUUGACCAGGAGGAGGUUUAUCGAGUUUUCGGCGGAUGCCUCUAAA [G35C A53G C71U] | < 1e-05
37 | AUAAAAACACCAGAACUACAGAAAUGUAGUUGACGAGAAGGAGGUUUAUCGAAUUUUCGGCGGAGGCCUCCAAA [G7A G9A G38A U65G] | < 1e-05
